For experiment [1], the target named is Wild-type F protein from the hMPV strain rC-85473 (human metapneumovirus (hMPV), strain rC-85473) (UniProt Q6WB98). Nature of the experiment: flow cytometry, HMPV24-A647 on LLC-MK2 cells infected with rC-85473. Background: In flow cytometry, cells or beads pass a laser one at a time.
Experiment [2] shares this target. The experiment in a line: flow cytometry, HMPV24-A647 on LLC-MK2 cells infected with Bivalent Metavac®-RSV v.1.
For experiment [3] the target is unchanged. The experiment in a line: flow cytometry, HMPV24-A647 on LLC-MK2 cells infected with Bivalent Metavac®-RSV v.2.
Experiment [4] shares this target. The experiment in a line: flow cytometry, HMPV24-A647 on LLC-MK2 cells infected with Bivalent Metavac®-RSV v.3.
In experiment [5] the target is F RSV v.1, native (wild-type) F protein of hRSV, RSV A2 strain (human respiratory syncytial virus (hRSV), RSV A2 strain) (UniProt P03420). The experiment in a line: flow cytometry, Palivizumab-PE on LLC-MK2 cells infected with Bivalent Metavac®-RSV v.1.
Experiment [6] addresses F RSV v.2, mutated F protein from hRSV corresponding to the stabilized prefusion state (human respiratory syncytial virus (hRSV), RSV A2 strain, mutated) (UniProt P03420). Nature of the experiment: flow cytometry, Palivizumab-PE on LLC-MK2 cells infected with Bivalent Metavac®-RSV v.2.
In experiment [7] the target is F RSV v.3, chimeric HMPV/RSV stabilized F pre-fusion form (mutated extracellular domain of F protein from hRSV with transmembrane and cytoplasmic domains of F protein from hMPV C-85473) (chimera of hRSV (RSV A2 strain, mutated) and hMPV (C-85473)). Nature of the experiment: flow cytometry, Palivizumab-PE on LLC-MK2 cells infected with Bivalent Metavac®-RSV v.3.

“Monoclonal mouse antibody detecting the F HMPV protein (MAb HMPV24 BioRad MCA 4674)”: the Infected cells expressing HMPV-F [%, GFP and A647 positive cells] in experiment [1] amounted to 98.9%; in experiment [2] it was 94.8%; in experiment [3], 94.8%; in experiment [4], 85.2%.

“Palivizumab Synagis® AstraZeneca, monoclonal humanized antibody detecting both pre-fusion and post-fusion forms of the F RSV protein”: the Infected cells expressing RSV-F [%, GFP and PE positive cells] in experiment [5] was 65.5%; in experiment [6], 54.6%; in experiment [7] it was 47.2%.

For the origin of these results see patent US20250195637A1.
